{
  "source": "paper PMC13623127",
  "about": "(PLOS One, 2026)",
  "assay_in_all_cases": "SPR; TNFSF member immobilised on ProteOn GLH chip by amine coupling (up to 5,000-14,500 RU); S100 analyte 62.5 nM to 16 uM, 300 s at 30 uL/min; 25°C; 10 mM HEPES-NaOH, 150 mM NaCl, 0.05% TWEEN 20, 1 mM CaCl2, pH 7.4; heterogeneous ligand, one-site or two-state model; constants averaged over analyte concentrations (SD, n = 2-9)",
  "details_in_all_cases": "both partners purified",
  "key": {"[1]": {"target": "T1, A proliferation-inducing ligand (TNF ligand superfamily member 13), recombinant soluble form (human, UniProt O75888 105-250)", "T1 construct": "A proliferation-inducing ligand (TNF ligand superfamily member 13), human, recombinant soluble form; also called APRIL", "T1 sequence (looked up)": "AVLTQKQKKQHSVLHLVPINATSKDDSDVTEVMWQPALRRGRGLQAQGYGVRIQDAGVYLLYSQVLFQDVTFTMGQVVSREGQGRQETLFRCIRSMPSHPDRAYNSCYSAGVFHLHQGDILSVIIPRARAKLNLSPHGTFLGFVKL"}, "[2]": {"target": "T2, TNF-related weak inducer of apoptosis (TNF ligand superfamily member 12), recombinant soluble form (human, UniProt O43508 94-249)", "T2 construct": "TNF-related weak inducer of apoptosis (TNF ligand superfamily member 12), human, recombinant soluble form; also called TWEAK", "T2 sequence (looked up)": "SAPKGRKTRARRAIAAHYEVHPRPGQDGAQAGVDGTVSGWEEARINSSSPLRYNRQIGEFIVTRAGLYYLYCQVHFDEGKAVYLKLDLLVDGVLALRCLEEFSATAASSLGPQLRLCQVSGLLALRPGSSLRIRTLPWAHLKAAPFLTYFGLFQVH"}, "[3]": {"target": "T3, activation-inducible TNF-related ligand (TNF ligand superfamily member 18), recombinant soluble form (human, UniProt Q9UNG2 49-177)", "T3 construct": "also called AITRL", "T3 sequence (looked up)": "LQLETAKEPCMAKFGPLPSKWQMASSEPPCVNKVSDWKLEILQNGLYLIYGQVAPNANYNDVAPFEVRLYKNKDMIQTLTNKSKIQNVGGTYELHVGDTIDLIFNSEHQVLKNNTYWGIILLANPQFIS"}, "[4]": {"target": "T4, vascular endothelial cell growth inhibitor (TNF ligand superfamily member 15), recombinant soluble form (human, UniProt O95150 72-251)", "T4 construct": "also called VEGI", "T4 sequence (looked up)": "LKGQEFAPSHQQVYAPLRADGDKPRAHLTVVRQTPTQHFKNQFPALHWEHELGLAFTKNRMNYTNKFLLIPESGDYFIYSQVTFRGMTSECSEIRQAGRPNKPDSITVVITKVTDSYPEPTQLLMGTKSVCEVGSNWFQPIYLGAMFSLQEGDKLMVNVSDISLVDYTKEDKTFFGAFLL"}},
  "data": [
    {"binder": "recombinant tag-free human S100A2 (natural protein, S100A2, human, recombinant, tag-free; Tag-free) not shown", "values": [
      {"measurement": "Kd", "setting": "[1]", "value": 684, "unit": "nM"},
      {"measurement": "koff", "setting": "[1]", "value": 0.00122, "unit": "s⁻¹"}
    ]},
    {"binder": "recombinant tag-free human S100A5 (natural protein, UniProt P33763 1-92, looked up, S100A5, human, recombinant, tag-free; Tag-free) METPLEKALTTMVTTFHKYSGREGSKLTLSRKELKELIKKELCLGEMKESSIDDLMKSLDKNSDQEIDFKEYSVFLTMLCMAYNDFFLEDNK", "values": [
      {"measurement": "Kd", "setting": "[2]", "value": 75.7, "unit": "nM"},
      {"measurement": "koff", "setting": "[2]", "value": "3.29e-05", "unit": "s⁻¹"},
      {"measurement": "Kd", "setting": "[1]", "value": 11, "unit": "nM"},
      {"measurement": "koff", "setting": "[1]", "value": "4.85e-06", "unit": "s⁻¹"},
      {"measurement": "Kd", "setting": "[3]", "value": 409, "unit": "nM"},
      {"measurement": "koff", "setting": "[3]", "value": 0.000275, "unit": "s⁻¹"}
    ]},
    {"binder": "recombinant tag-free human S100B (natural protein, UniProt P04271 1-92, looked up, S100B, human, recombinant, tag-free; Tag-free) MSELEKAMVALIDVFHQYSGREGDKHKLKKSELKELINNELSHFLEEIKEQEVVDKVMETLDNDGDGECDFQEFMAFVAMVTTACHEFFEHE", "values": [
      {"measurement": "Kd", "setting": "[3]", "value": 12000, "unit": "nM"},
      {"measurement": "koff", "setting": "[3]", "value": 0.00626, "unit": "s⁻¹"}
    ]},
    {"binder": "recombinant tag-free human S100P (natural protein, UniProt P25815 1-95, looked up, S100P, human, recombinant, tag-free; Tag-free) MTELETAMGMIIDVFSRYSGSEGSTQTLTKGELKVLMEKELPGFLQSGKDKDAVDKLLKDLDANGDAQVDFSEFIVFVAAITSACHKYFEKAGLK", "values": [
      {"measurement": "Kd", "setting": "[4]", "value": 11100, "unit": "nM"},
      {"measurement": "koff", "setting": "[4]", "value": 0.0123, "unit": "s⁻¹"}
    ]}
  ]
}
